Six molecules from patent publication US20140087995A1 (published 2014) can be followed below.

The chains are these.
T1: human amylin receptor (human, UniProt P30988 25-474; O60896 24-148, limits assumed)
T1 construct: whole, on cells; Calcitonin receptor plus RAMP-3 gives the amylin 3(a) receptor; membranes of Amylin 3(a)/CRE-luc cells were used; also called hAmylin-R; hAmylinR
T1 sequence (looked up) 1: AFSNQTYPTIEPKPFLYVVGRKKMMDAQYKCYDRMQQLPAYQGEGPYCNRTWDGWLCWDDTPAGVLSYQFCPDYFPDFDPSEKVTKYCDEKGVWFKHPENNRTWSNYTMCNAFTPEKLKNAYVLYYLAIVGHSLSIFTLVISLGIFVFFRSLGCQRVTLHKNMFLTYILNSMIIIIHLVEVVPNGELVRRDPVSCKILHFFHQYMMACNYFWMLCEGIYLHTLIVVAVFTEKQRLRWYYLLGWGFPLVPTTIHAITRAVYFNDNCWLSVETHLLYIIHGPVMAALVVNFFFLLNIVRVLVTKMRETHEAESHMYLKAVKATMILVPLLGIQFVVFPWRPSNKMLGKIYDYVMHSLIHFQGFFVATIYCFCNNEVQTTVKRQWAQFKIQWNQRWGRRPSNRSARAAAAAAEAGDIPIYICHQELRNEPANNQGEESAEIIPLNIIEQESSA
T1 sequence (looked up) 2: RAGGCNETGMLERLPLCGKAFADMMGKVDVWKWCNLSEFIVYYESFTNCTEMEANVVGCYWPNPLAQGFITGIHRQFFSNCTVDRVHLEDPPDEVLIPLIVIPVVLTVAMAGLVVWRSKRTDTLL

B1: N^-1-[(4S)-4-carboxy-4-(19-carboxynonadecanoylamino)butanoyl]-Gly[Arg1,Arg17,Pro21,Pro27]-h-amylin (peptide)
peptide: {C20 diacid-γGlu}-GRCNTATCATQRLANFLRHSSPNFGAIPSSTNVGSNTY-NH2
modifications: disulfide 3-8
SMILES: CC[C@H](C)[C@H](NC(=O)[C@H](C)NC(=O)CNC(=O)[C@H](Cc1ccccc1)NC(=O)[C@H](CC(N)=O)NC(=O)[C@@H]1CCCN1C(=O)[C@H](CO)NC(=O)[C@H](CO)NC(=O)[C@H](Cc1c[nH]cn1)NC(=O)[C@H](CCCNC(=N)N)NC(=O)[C@H](CC(C)C)NC(=O)[C@H](Cc1ccccc1)NC(=O)[C@H](CC(N)=O)NC(=O)[C@H](C)NC(=O)[C@H](CC(C)C)NC(=O)[C@H](CCCNC(=N)N)NC(=O)[C@H](CCC(N)=O)NC(=O)[C@@H](NC(=O)[C@H](C)NC(=O)[C@@H]1CSSC[C@H](NC(=O)[C@H](CCCNC(=N)N)NC(=O)CNC(=O)CC[C@H](NC(=O)CCCCCCCCCCCCCCCCCCC(=O)O)C(=O)O)C(=O)N[C@@H](CC(N)=O)C(=O)N[C@@H]([C@@H](C)O)C(=O)N[C@@H](C)C(=O)N[C@@H]([C@@H](C)O)C(=O)N1)[C@@H](C)O)C(=O)N1CCC[C@H]1C(=O)N[C@@H](CO)C(=O)N[C@@H](CO)C(=O)N[C@H](C(=O)N[C@@H](CC(N)=O)C(=O)N[C@H](C(=O)NCC(=O)N[C@@H](CO)C(=O)N[C@@H](CC(N)=O)C(=O)N[C@H](C(=O)N[C@@H](Cc1ccc(O)cc1)C(N)=O)[C@@H](C)O)C(C)C)[C@@H](C)O
notes: also called -1G, 1R, 17R, 21P, 27P
B2: N^-1-[(4S)-4-carboxy-4-(19-carboxynonadecanoylamino)butanoyl]-Gly[Arg1,Ala14,Arg17,Pro21,Pro27,Pro34]-h-amylin (peptide)
peptide: {C20 diacid-γGlu}-GRCNTATCATQRLAAFLRHSSPNFGAIPSSTNVGPNTY-NH2
modifications: disulfide 3-8
notes: also called -1G, 1R, 14A, 17R, 21P, 27P, 34P
B3: N^-1-[(4S)-4-carboxy-4-(19-carboxynonadecanoylamino)butanoyl]-Gly[Arg1,Ala14,Arg17,Pro21,Pro27,His34]-h-amylin (peptide)
peptide: {C20 diacid-γGlu}-GRCNTATCATQRLAAFLRHSSPNFGAIPSSTNVGHNTY-NH2
modifications: disulfide 3-8
SMILES: CC[C@H](C)[C@H](NC(=O)[C@H](C)NC(=O)CNC(=O)[C@H](Cc1ccccc1)NC(=O)[C@H](CC(N)=O)NC(=O)[C@@H]1CCCN1C(=O)[C@H](CO)NC(=O)[C@H](CO)NC(=O)[C@H](Cc1c[nH]cn1)NC(=O)[C@H](CCCNC(=N)N)NC(=O)[C@H](CC(C)C)NC(=O)[C@H](Cc1ccccc1)NC(=O)[C@H](C)NC(=O)[C@H](C)NC(=O)[C@H](CC(C)C)NC(=O)[C@H](CCCNC(=N)N)NC(=O)[C@H](CCC(N)=O)NC(=O)[C@@H](NC(=O)[C@H](C)NC(=O)[C@@H]1CSSC[C@H](NC(=O)[C@H](CCCNC(=N)N)NC(=O)CNC(=O)CC[C@H](NC(=O)CCCCCCCCCCCCCCCCCCC(=O)O)C(=O)O)C(=O)N[C@@H](CC(N)=O)C(=O)N[C@@H]([C@@H](C)O)C(=O)N[C@@H](C)C(=O)N[C@@H]([C@@H](C)O)C(=O)N1)[C@@H](C)O)C(=O)N1CCC[C@H]1C(=O)N[C@@H](CO)C(=O)N[C@@H](CO)C(=O)N[C@H](C(=O)N[C@@H](CC(N)=O)C(=O)N[C@H](C(=O)NCC(=O)N[C@@H](Cc1c[nH]cn1)C(=O)N[C@@H](CC(N)=O)C(=O)N[C@H](C(=O)N[C@@H](Cc1ccc(O)cc1)C(N)=O)[C@@H](C)O)C(C)C)[C@@H](C)O
notes: also called -1G, 1R, 14A, 17R, 21P, 27P, 34H
B4: N^-1-[(4S)-4-carboxy-4-(19-carboxynonadecanoylamino)butanoyl]-Gly[Arg1,Arg17,Pro21,Pro27,His35]-h-amylin (peptide)
peptide: {C20 diacid-γGlu}-GRCNTATCATQRLANFLRHSSPNFGAIPSSTNVGSHTY-NH2
modifications: disulfide 3-8
SMILES: CC[C@H](C)[C@H](NC(=O)[C@H](C)NC(=O)CNC(=O)[C@H](Cc1ccccc1)NC(=O)[C@H](CC(N)=O)NC(=O)[C@@H]1CCCN1C(=O)[C@H](CO)NC(=O)[C@H](CO)NC(=O)[C@H](Cc1c[nH]cn1)NC(=O)[C@H](CCCNC(=N)N)NC(=O)[C@H](CC(C)C)NC(=O)[C@H](Cc1ccccc1)NC(=O)[C@H](CC(N)=O)NC(=O)[C@H](C)NC(=O)[C@H](CC(C)C)NC(=O)[C@H](CCCNC(=N)N)NC(=O)[C@H](CCC(N)=O)NC(=O)[C@@H](NC(=O)[C@H](C)NC(=O)[C@@H]1CSSC[C@H](NC(=O)[C@H](CCCNC(=N)N)NC(=O)CNC(=O)CC[C@H](NC(=O)CCCCCCCCCCCCCCCCCCC(=O)O)C(=O)O)C(=O)N[C@@H](CC(N)=O)C(=O)N[C@@H]([C@@H](C)O)C(=O)N[C@@H](C)C(=O)N[C@@H]([C@@H](C)O)C(=O)N1)[C@@H](C)O)C(=O)N1CCC[C@H]1C(=O)N[C@@H](CO)C(=O)N[C@@H](CO)C(=O)N[C@H](C(=O)N[C@@H](CC(N)=O)C(=O)N[C@H](C(=O)NCC(=O)N[C@@H](CO)C(=O)N[C@@H](Cc1c[nH]cn1)C(=O)N[C@H](C(=O)N[C@@H](Cc1ccc(O)cc1)C(N)=O)[C@@H](C)O)C(C)C)[C@@H](C)O
notes: also called -1G, 1R, 17R, 21P, 27P, 35H
B5: N^-1-[(4S)-4-carboxy-4-(19-carboxynonadecanoylamino)butanoyl]-Gly[Arg1,His14,Arg17,Pro21,Pro27,Pro34]-h-amylin (peptide)
peptide: {C20 diacid-γGlu}-GRCNTATCATQRLAHFLRHSSPNFGAIPSSTNVGPNTY-NH2
modifications: disulfide 3-8
SMILES: CC[C@H](C)[C@H](NC(=O)[C@H](C)NC(=O)CNC(=O)[C@H](Cc1ccccc1)NC(=O)[C@H](CC(N)=O)NC(=O)[C@@H]1CCCN1C(=O)[C@H](CO)NC(=O)[C@H](CO)NC(=O)[C@H](Cc1c[nH]cn1)NC(=O)[C@H](CCCNC(=N)N)NC(=O)[C@H](CC(C)C)NC(=O)[C@H](Cc1ccccc1)NC(=O)[C@H](Cc1c[nH]cn1)NC(=O)[C@H](C)NC(=O)[C@H](CC(C)C)NC(=O)[C@H](CCCNC(=N)N)NC(=O)[C@H](CCC(N)=O)NC(=O)[C@@H](NC(=O)[C@H](C)NC(=O)[C@@H]1CSSC[C@H](NC(=O)[C@H](CCCNC(=N)N)NC(=O)CNC(=O)CC[C@H](NC(=O)CCCCCCCCCCCCCCCCCCC(=O)O)C(=O)O)C(=O)N[C@@H](CC(N)=O)C(=O)N[C@@H]([C@@H](C)O)C(=O)N[C@@H](C)C(=O)N[C@@H]([C@@H](C)O)C(=O)N1)[C@@H](C)O)C(=O)N1CCC[C@H]1C(=O)N[C@@H](CO)C(=O)N[C@@H](CO)C(=O)N[C@H](C(=O)N[C@@H](CC(N)=O)C(=O)N[C@H](C(=O)NCC(=O)N1CCC[C@H]1C(=O)N[C@@H](CC(N)=O)C(=O)N[C@H](C(=O)N[C@@H](Cc1ccc(O)cc1)C(N)=O)[C@@H](C)O)C(C)C)[C@@H](C)O
notes: also called -1G, 1R, 14H, 17R, 21P, 27P, 34P
B6: N^ε1-[2-[2-[2-(19-carboxynonadecanoylamino)ethoxy]ethoxy]acetyl]-[Arg17,Pro21,Pro27]-h-amylin (peptide)
peptide: K([AEEA-C20 diacid])CNTATCATQRLANFLRHSSPNFGAIPSSTNVGSNTY-NH2
modifications: disulfide 2-7; N-terminus assumed
SMILES: CC[C@H](C)[C@H](NC(=O)[C@H](C)NC(=O)CNC(=O)[C@H](Cc1ccccc1)NC(=O)[C@H](CC(N)=O)NC(=O)[C@@H]1CCCN1C(=O)[C@H](CO)NC(=O)[C@H](CO)NC(=O)[C@H](Cc1c[nH]cn1)NC(=O)[C@H](CCCNC(=N)N)NC(=O)[C@H](CC(C)C)NC(=O)[C@H](Cc1ccccc1)NC(=O)[C@H](CC(N)=O)NC(=O)[C@H](C)NC(=O)[C@H](CC(C)C)NC(=O)[C@H](CCCNC(=N)N)NC(=O)[C@H](CCC(N)=O)NC(=O)[C@@H](NC(=O)[C@H](C)NC(=O)[C@@H]1CSSC[C@H](NC(=O)[C@@H](N)CCCCNC(=O)COCCOCCNC(=O)CCCCCCCCCCCCCCCCCCC(=O)O)C(=O)N[C@@H](CC(N)=O)C(=O)N[C@@H]([C@@H](C)O)C(=O)N[C@@H](C)C(=O)N[C@@H]([C@@H](C)O)C(=O)N1)[C@@H](C)O)C(=O)N1CCC[C@H]1C(=O)N[C@@H](CO)C(=O)N[C@@H](CO)C(=O)N[C@H](C(=O)N[C@@H](CC(N)=O)C(=O)N[C@H](C(=O)NCC(=O)N[C@@H](CO)C(=O)N[C@@H](CC(N)=O)C(=O)N[C@H](C(=O)N[C@@H](Cc1ccc(O)cc1)C(N)=O)[C@@H](C)O)C(C)C)[C@@H](C)O
notes: also called 17R, 21P, 27P

Numbered stars: 1 amine (or outer) side, 2 acyl side, 3 side chain; on linkers, the order of the positions; unused ones are H or OH. Bridge positions count the residues as written; N and C are the ends. Side chains are listed from the residue outwards. Ends that are not written are not given here. * marks the point of attachment. C20 diacid = O=C(O)CCCCCCCCCCCCCCCCCCC(=O)*; γGlu = O=C(O)[C@H](CCC(=O)[*:2])N[*:1]; AEEA = NCCOCCOCC(=O)O

For this assay, the target named is T1, human amylin receptor. Briefly: SPA competition binding, displacement of 125I-rat amylin from membranes with human amylin 3(a) receptor (Assay V). Summed up: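 SPA beads + BHK amylin 3(a)/CRE-luc membranes, 35 ng/μL final; buffer 50 mM Hepes pH 7.4, 1 mM CaCl2, 5 mM MgCl₂, 0.1% OA, 0.02% Tween20. 120 min, 25° C, shaken; scintillation count. IC₅₀ by one-site binding competition fit, taken as receptor affinity.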
As a reminder, the IC50 is the midpoint of a concentration-inhibition curve. As for B1, the IC50 came to 0.195 nM.

Take B2: the IC50 worked out at 0.114 nM. Against the preceding molecule, the IC50 is about 1.7-fold lower.

The molecule B3 yielded an IC50 of 0.426 nM.

Regarding B4, the IC50 was found to be 0.344 nM.

Molecule B5 yielded an IC50 of 0.217 nM.

Molecule B6 returned an IC50 of 0.076 nM.
